How the values were obtained:
human BMP11 = biological target: T1, human BMP11 (human, UniProt O95390 299-407); experiment: BLI, OctetRED 384; family member amine coupled to AR2G biosensor
T1 construct: Bought; also called GDF-11
T1 sequence (looked up): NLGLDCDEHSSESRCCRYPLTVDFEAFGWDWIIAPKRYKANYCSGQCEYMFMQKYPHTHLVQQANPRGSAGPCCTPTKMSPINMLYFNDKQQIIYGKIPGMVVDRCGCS
Procedure: (§1) To assess the binding specificity of GDF15_001 to human GDF15, GDF15_001 binding to additional TGFB family members was tested. Analysis was carried out on an Octet Red instrument.
(§2) The TGFB family members were diluted to 10 ug/ml in 10 mM Sodium Acetate pH 4.5 and amine coupled onto AR2G biosensors (catalogue #18-5092, ForteBio) according to the manufacturer's instructions. Monomeric GDF15_001 was diluted to 200 nM in kinetics buffer (catalogue #18-5032 ForteBio). Octet assays were conducted at room temperature with an association time of 300 seconds and a dissociation time of 180 seconds. The data was double referenced (Myszka, D., J. Mol. Recognit 1999; 279-284) and analyzed with Octet Data Analysis software version 8.1 (ForteBio).

human BMP9 = biological target: T2, human BMP9 (human, UniProt Q9UK05 320-429); experiment: as above
T2 construct: Bought
T2 sequence (looked up): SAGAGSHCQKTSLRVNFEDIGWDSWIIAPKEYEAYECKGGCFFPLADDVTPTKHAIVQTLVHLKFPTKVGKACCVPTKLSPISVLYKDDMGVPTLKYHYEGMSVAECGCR
Procedure: as §1, §2

human GDF8 = biological target: T3, human GDF8 (human, UniProt O14793 267-375, limits assumed); experiment: as above
T3 construct: In-house material
T3 sequence (looked up): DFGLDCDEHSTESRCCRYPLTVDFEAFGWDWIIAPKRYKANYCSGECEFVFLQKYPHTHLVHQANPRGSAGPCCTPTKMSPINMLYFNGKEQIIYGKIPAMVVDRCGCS
Procedure: as §1, §2

human BMP2 = biological target: T4, human BMP2 (human, UniProt P12643 283-396); experiment: as above
T4 construct: Bought
T4 sequence (P12643 283-396 limits assumed): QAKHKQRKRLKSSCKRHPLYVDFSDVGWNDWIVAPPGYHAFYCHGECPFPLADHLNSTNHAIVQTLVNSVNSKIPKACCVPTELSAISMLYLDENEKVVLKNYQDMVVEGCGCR
Procedure: as §1, §2

human BMP6 = biological target: T5, human BMP6 (human, UniProt P22004 382-513, limits assumed); experiment: as above
T5 construct: Bought
T5 sequence (looked up): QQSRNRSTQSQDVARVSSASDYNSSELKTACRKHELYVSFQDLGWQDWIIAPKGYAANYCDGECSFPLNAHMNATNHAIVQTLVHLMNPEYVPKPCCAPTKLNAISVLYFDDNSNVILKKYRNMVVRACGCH
Procedure: as §1, §2

human TGFß-1 = biological target: T6, human TGFß-1 (human, UniProt P01137 279-390); experiment: as above
T6 construct: Bought; also called TGFB-1
T6 sequence (P01137 279-390 limits assumed): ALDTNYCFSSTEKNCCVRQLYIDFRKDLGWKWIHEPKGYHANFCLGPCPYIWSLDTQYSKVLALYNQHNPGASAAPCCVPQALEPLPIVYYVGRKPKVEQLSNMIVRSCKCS
Procedure: as §1, §2

human Activin B = biological target: T7, human Activin B (human, UniProt P09529 293-407); experiment: as above
T7 construct: Bought
T7 sequence (looked up): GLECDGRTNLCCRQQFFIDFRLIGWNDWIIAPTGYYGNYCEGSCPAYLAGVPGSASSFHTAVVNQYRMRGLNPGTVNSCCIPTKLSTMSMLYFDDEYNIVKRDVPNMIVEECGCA
Procedure: as §1, §2

human Inhibin A = biological target: T8, human Inhibin A (human, UniProt P05111 233-366; P08476 311-426); experiment: as above
T8 construct: Bought
T8 sequence (looked up) 1: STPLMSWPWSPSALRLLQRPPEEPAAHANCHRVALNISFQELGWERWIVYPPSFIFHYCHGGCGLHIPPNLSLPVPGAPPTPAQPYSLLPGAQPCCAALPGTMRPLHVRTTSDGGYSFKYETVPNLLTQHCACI
T8 sequence (looked up) 2: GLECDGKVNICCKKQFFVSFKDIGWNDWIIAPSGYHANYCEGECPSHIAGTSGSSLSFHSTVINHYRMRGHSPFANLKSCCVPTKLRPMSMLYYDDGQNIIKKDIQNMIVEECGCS
Procedure: as §1, §2

[1] = biological target: Mouse Fc-mouse GDF15 (Mu IgG1Fc_Fxa_Mu GDF15) (mouse); experiment: SPR BIAcore T200, 37C; Fc-GDF15 captured, monomeric Fc-Fab as analyte; murine GDF15 ligand (Mu IgG1Fc_Fxa_Mu GDF15), second run

- binding result (human BMP11): no binding (tested: 200 nM)
- binding result (human BMP9): no binding (tested: 200 nM)
- binding result (human GDF8): no binding (tested: 200 nM)
- binding result (human BMP2): no binding (tested: 200 nM)
- binding result (human BMP6): no binding (tested: 200 nM)
- binding result (human TGFß-1): no binding (tested: 200 nM)
- binding result (human Activin B): no binding (tested: 200 nM)
- binding result (human Inhibin A): no binding (tested: 200 nM)
- Kd [1]: 1.82 nM
B1: monomeric GDF15_001 (CH23LS-GBT-GDF15_001) (Fab, V domains shown)
VH: QVQLVQSGAEVKKPGSSVKVSCKASGYTFSSYNIDWVRQAPGQGLEWMGGINPIFGTAFYNQKFQGRVTITADESTSTAYMELSSLRSEDTAVYYCAREAITTVGAMDHWGQGTLVTVSS
VL: EIVLTQSPATLSLSPGERATLSCRTSQSVHNYLAWYQQKPGQAPRLLIYDASTRADGIPARFSGSGSGTDFTLTISSLEPEDFAVYYCQQFWSWPWTFGQGTKVEIK
notes: Monovalent 'monomeric Fc-Fab' of GDF15_001 made to measure KD without avidity; also called CH23LS-GDF15_001; monomeric Fc-Fab

— patent publication US20260159579A1 (Pfizer, published 2026)
